From PMC3999280

Columns and labels:
[1] = biological target: LdtRLas (LdtR from 'Candidatus Liberibacter asiaticus', […]_01180) ('Candidatus Liberibacter asiaticus' str. psy62); experiment: SEC
[2] = biological target: LdtRLas ('Candidatus Liberibacter asiaticus') (UniProt A0ABN4AZS1); experiment: EMSA; settings: EMSA: 50 mM Tris-HCl pH 7.2, 150 mM KCl, 10 mM MgCl2, 0.01% Triton X-100, 12.5 ng/uL each poly(dI-dC) and poly(dA-dT), 1 ng probe in 20 uL, 20 min at 37 C; 6% …

Row | Substance | stoichiometry N [1] | K half [2] [nM]
1 | LdtRLas (LdtR from 'Candidatus Liberibacter asiaticus', […]_01180) (natural protein) | 2 | –
2 | PldtP (PldtPLas) | – | 100
